Tests used:
[1] = target: native EPSPS from E. coli (Escherichia coli, UniProt P0A6D3); details: read-out: apparent Km for PEP; cited from earlier work
[2] = test system: T0 transgenic tobacco plants; experiment: Spray with glyphosate (Touchdown) on ZmEPSPS mutant containing tobacco; assay type: in vivo; details: for tolerance to Touchdown spray: 2× and 4× field rates; for tolerance to Touchdown spray / herbicide damage: 2 weeks post treatment; for herbicide damage: 4× field rates as printed in the text; for Damage: assessed 2 weeks post treatment
Experimental: T0 transgenic tobacco plants were grown on soil for 4 weeks in Conviron growth chambers. These plants were sprayed with 2×, 4× and 8× Touchdown herbicide at 2×, 4× and 8× field rate (1× field rate=1680 g AE/Ha), respectively, and the herbicide damage was assessed 2 weeks post treatment. […]

tobacco leaf discs = experiment: Screening maize mutants using tobacco regeneration system on glyphosate medium; assay type: cell-based; details: regeneration medium containing 50 nM glyphosate and 200 mg/L Timentin
Experimental: The efficacy of maize mutant genes (Table 2) were tested using a tobacco leaf discs transformation/regeneration system. […] Additionally, a third mutant comprising the mutations of mutant #8 and #13 is possible resulting in an […] mutant.

[3] = Touchdown 2X field rate (1X = 1680 g AE/Ha)
[4] = Touchdown 4X field rate (1X = 1680 g AE/Ha)
[5] = Touchdown 8X field rate (1X = 1680 g AE/Ha)

Chain of native EPSPS from E. coli (P0A6D3 whole entry): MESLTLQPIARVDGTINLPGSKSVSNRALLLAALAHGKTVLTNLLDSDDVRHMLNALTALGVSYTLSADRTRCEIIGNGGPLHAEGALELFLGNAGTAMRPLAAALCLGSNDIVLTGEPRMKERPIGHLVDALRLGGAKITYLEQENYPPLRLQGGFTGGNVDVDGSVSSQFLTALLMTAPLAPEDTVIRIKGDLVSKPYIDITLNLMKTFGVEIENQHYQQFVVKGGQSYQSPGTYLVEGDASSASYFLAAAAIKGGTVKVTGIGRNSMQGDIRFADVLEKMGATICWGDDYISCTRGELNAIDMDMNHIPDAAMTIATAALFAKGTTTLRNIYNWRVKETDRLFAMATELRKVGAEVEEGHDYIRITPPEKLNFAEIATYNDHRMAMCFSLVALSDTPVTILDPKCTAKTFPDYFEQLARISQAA

Row | Molecule | Km [1] [µM] | tolerance to Touchdown spray [2] | herbicide damage [2] | Damage [2, 3] | Damage [2, 4] | Damage [2, 5] | ability to regenerate on glyphosate media (tobacco leaf discs)
1 | C=C(OP(=O)(O)O)C(=O)O [PEP, phosphoenolpyruvic acid] | 10 |  |  |  |  |  | 
2 | ZmEPSPS-20: maize EPSPS mutant gene/protein, A68D and T102I; contains Table 2 mutant #13; SEQ ID NO. 6 (protein, Mutated zea mays; (68)..(68) X = D or E) AGAEEIVLQPIKEISGTVKLPGSKSLSNRILLLAALSEGTTVVDNLLNSEDVHYMLGALRTLGLSVEXDKAAKRAVVVGCGGKFPVEDAKEEVQLFLGNAGIAMRPLTAAVTAAGGNATYVLDGVPRMRERPIGDLVVGLKQLGADVDCFLGTDCPPVRVNGIGGLPGGKVKLSGSISSQYLSALLMAAPLALGDVEIEIIDKLISIPYVEMTLRLMERFGVKAEHSDSWDRFYIKGGQKYKSPKNAYVEGDASSASYFLAGAAITGGTVTVEGCGTTSLQGDVKFAEVLEMMGAKVTWTETSVTVTGPPREPFGRKHLKAIDVNMNKMPDVAMTLAVVALFADGPTAIRDVASWRVKETERMVAIRTELTKLGASVEEGPDYCIITPPEKLNVTAIDTYDDHRMAMAFSLAACAEVPVTIRDPGCTRKTFPDYFDVLSTFVKN |  | completely tolerant | only minor damage | No damage | No damage | Minor damage at shoot apex | tolerant mutants
3 | ZmEPSPS-27: maize EPSPS mutant gene/protein, A68E and G101C; contains Table 2 mutant #8; SEQ ID NO. 7 (protein, Mutated zea mays; (68)..(68) X = D or E) AGAEEIVLQPIKEISGTVKLPGSKSLSNRILLLAALSEGTTVVDNLLNSEDVHYMLGALRTLGLSVEXDKAAKRAVVVGCGGKFPVEDAKEEVQLFLGNACTAMRPLTAAVTAAGGNATYVLDGVPRMRERPIGDLVVGLKQLGADVDCFLGTDCPPVRVNGIGGLPGGKVKLSGSISSQYLSALLMAAPLALGDVEIEIIDKLISIPYVEMTLRLMERFGVKAEHSDSWDRFYIKGGQKYKSPKNAYVEGDASSASYFLAGAAITGGTVTVEGCGTTSLQGDVKFAEVLEMMGAKVTWTETSVTVTGPPREPFGRKHLKAIDVNMNKMPDVAMTLAVVALFADGPTAIRDVASWRVKETERMVAIRTELTKLGASVEEGPDYCIITPPEKLNVTAIDTYDDHRMAMAFSLAACAEVPVTIRDPGCTRKTFPDYFDVLSTFVKN |  | completely tolerant | only minor damage | No damage | No damage | Minor damage, some | tolerant mutants
